Measurements: IntAct's records for PubMed 29892012

B1: F-box/LRR-repeat protein 12 (Homo sapiens), Q9NXK8 (parent)
chain: MATLVELPDSVLLEIFSYLPVRDRIRISRVCHRWKRLVDDRWLWRHVDLTLYTMRPKVMWHLLRRYMASRLHSLRMGGYLFSGSQAPQLSPALLRALGQKCPNLKRLCLHVADLSMVPITSLPSTLRTLELHSCEISMAWLHKQQDPTVLPLLECIVLDRVPAFRDEHLQGLTRFRALRSLVLGGTYRVTETGLDAGLQELSYLQRLEVLGCTLSADSTLLAISRHLRDVRKIRLTVRGLSAPGLAVLEGMPALESLCLQGPLVTPEMPSPTEILSSCLTMPKLRVLELQGLGWEGQEAEKILCKGLPHCMVIVRACPKESMDWWM
partner: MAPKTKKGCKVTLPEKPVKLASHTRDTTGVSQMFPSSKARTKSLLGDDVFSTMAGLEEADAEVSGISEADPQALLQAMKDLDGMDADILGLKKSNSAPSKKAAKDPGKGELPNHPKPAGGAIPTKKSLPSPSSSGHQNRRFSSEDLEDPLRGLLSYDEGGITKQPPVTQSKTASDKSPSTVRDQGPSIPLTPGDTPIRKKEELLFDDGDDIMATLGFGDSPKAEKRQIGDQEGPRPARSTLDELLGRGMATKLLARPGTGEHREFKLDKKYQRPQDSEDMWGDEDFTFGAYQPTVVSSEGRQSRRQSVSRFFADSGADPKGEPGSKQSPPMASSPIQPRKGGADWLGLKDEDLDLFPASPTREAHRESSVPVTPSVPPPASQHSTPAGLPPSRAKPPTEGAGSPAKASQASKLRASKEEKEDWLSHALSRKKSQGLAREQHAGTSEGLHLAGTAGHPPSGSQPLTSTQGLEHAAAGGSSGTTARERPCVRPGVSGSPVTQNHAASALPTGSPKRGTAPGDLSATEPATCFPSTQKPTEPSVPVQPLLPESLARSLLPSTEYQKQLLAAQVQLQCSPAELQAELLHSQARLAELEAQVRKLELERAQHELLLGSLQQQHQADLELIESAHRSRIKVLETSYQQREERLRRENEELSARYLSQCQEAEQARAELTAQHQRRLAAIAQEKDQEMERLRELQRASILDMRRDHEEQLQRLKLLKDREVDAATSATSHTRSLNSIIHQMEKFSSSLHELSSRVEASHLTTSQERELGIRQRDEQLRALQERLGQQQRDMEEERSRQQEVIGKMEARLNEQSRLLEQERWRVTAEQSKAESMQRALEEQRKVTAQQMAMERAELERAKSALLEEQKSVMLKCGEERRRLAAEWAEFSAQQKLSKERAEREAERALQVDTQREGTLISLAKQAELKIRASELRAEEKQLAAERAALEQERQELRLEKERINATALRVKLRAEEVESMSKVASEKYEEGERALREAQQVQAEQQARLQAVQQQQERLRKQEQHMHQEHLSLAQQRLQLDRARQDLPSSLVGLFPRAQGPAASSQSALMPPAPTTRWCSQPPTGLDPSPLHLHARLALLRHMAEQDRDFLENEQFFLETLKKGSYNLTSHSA
B2: Exportin-6 (Homo sapiens), Q96QU8 (parent)
chain: MASEEASLRALESLMTEFFHDCTTNERKREIEELLNNFAQQIGAWRFCLYFLSSTRNDYVMMYSLTVFENLINKMWLGVPSQDKMEIRSCLPKLLLAHHKTLPYFIRNKLCKVIVDIGRQDWPMFYHDFFTNILQLIQSPVTTPLGLIMLKTTSEELACPREDLSVARKEELRKLLLDQVQTVLGLLTGILETVWDKHSVTAATPPPSPTSGESGDLLSNLLQSPSSAKLLNQPIPILDVESEYICSLALECLAHLFSWIPLSASITPSLLTTIFHFARFGCDIRARKMASVNGSSQNCVSGQERGRLGVLAMSCINELMSKNCVPMEFEEYLLRMFQQTFYLLQKITKDNNAHTVKSRLEELDESYIEKFTDFLRLFVSVHLRRIESYSQFPVVEFLTLLFKYTFHQPTHEGYFSCLDIWTLFLDYLTSKIKSRLGDKEAVLNRYEDALVLLLTEVLNRIQFRYNQAQLEELDDETLDDDQQTEWQRYLRQSLEVVAKVMELLPTHAFSTLFPVLQDNLEVYLGLQQFIVTSGSGHRLNITAENDCRRLHCSLRDLSSLLQAVGRLAEYFIGDVFAARFNDALTVVERLVKVTLYGSQIKLYNIETAVPSVLKPDLIDVHAQSLAALQAYSHWLAQYCSEVHRQNTQQFVTLISTTMDAITPLISTKVQDKLLLSACHLLVSLATTVRPVFLISIPAVQKVFNRITDASALRLVDKAQVLVCRALSNILLLPWPNLPENEQQWPVRSINHASLISALSRDYRNLKPSAVAPQRKMPLDDTKLIIHQTLSVLEDIVENISGESTKSRQICYQSLQESVQVSLALFPAFIHQSDVTDEMLSFFLTLFRGLRVQMGVPFTEQIIQTFLNMFTREQLAESILHEGSTGCRVVEKFLKILQVVVQEPGQVFKPFLPSIIALCMEQVYPIIAERPSPDVKAELFELLFRTLHHNWRYFFKSTVLASVQRGIAEEQMENEPQFSAIMQAFGQSFLQPDIHLFKQNLFYLETLNTKQKLYHKKIFRTAMLFQFVNVLLQVLVHKSHDLLQEEIGIAIYNMASVDFDGFFAAFLPEFLTSCDGVDANQKSVLGRNFKMDRDLPSFTQNVHRLVNDLRYYRLCNDSLPPGTVKL
B3: Keratin, type I cuticular Ha8 (Homo sapiens), O76015 (parent)
chain: MTSSYSSSSCPLGCTMAPGARNVSVSPIDIGCQPGAEANIAPMCLLANVAHANRVRVGSTPLGRPSLCLPPTCHTACPLPGTCHIPGNIGICGAYGENTLNGHEKETMQFLNDRLANYLEKVRQLEQENAELEATLLERSKCHESTVCPDYQSYFHTIEELQQKILCSKAENARLIVQIDNAKLAADDFRIKLESERSLRQLVEADKCGTQKLLDDATLAKADLEAQQESLKEEQLSLKSNHEQEVKILRSQLGEKLRIELDIEPTIDLNRVLGEMRAQYEAMLETNRQDVEQWFQAQSEGISLQDMSCSEELQCCQSEILELRCTVNALEVERQAQHTLKDCLQNSLCEAEDRFGTELAQMQSLISNVEEQLSEIRADLERQNQEYQVLLDVKTRLENEIATYRNLLESEDCKLPCNPCSTSPSCVTAPCAPRPSCGPCTTCGPTCGASTTGSRF
partner: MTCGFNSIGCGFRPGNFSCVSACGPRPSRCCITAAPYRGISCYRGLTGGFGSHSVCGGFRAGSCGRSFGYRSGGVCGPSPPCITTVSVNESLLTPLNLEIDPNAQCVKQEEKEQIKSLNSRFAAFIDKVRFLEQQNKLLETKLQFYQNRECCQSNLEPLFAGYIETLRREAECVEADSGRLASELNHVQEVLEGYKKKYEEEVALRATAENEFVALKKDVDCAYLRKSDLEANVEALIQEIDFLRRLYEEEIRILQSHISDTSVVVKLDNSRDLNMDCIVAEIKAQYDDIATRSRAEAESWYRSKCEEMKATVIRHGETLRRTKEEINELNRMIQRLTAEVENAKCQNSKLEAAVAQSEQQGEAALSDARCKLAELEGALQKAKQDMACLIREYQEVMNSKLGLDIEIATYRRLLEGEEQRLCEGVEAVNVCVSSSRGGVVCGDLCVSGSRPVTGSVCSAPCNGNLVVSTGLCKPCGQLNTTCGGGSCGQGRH

Variants of: B1
Details: with fbf1_human FBF1, Q8TES7

effect of a mutation on the interaction | Variant
with no effect | I313V

Variants of: B2
Details: with nup62_human NUP62, P37198
nup62_human NUP62, P37198, sequence (P37198 whole entry): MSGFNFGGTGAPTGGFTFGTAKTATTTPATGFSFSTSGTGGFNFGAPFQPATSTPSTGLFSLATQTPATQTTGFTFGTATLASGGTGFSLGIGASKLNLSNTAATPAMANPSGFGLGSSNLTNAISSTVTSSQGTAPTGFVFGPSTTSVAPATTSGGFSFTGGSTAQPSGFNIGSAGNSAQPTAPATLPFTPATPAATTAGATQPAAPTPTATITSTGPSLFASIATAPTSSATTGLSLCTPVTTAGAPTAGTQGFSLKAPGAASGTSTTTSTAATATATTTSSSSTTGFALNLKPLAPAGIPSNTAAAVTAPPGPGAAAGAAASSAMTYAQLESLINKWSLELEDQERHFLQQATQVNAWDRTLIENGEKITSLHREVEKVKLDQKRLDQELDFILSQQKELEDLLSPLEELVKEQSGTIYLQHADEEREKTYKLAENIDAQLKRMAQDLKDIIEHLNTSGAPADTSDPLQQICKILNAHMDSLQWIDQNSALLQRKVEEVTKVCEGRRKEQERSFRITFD

effect of a mutation on the interaction | Variant
with no effect | L512V

Variants of: B3
Details: with krt83_human KRT83, P78385

effect of a mutation on the interaction | Variant
with no effect | N270K

Variants of: B3
Details: with krt83_human KRT83, P78385
Remark: another data set of the same source

effect of a mutation on the interaction | Variant
with no effect | D306A
